This assay deals with recombinant bovine respiratory syncytial virus fusion (F) protein, purified (bovine respiratory syncytial virus, UniProt P22167 26-513). In words: SPR.

B1: hybrid Fab B4* (B4 HC/B13 LC) (Fab, V domains shown)
VH: QVQLQESGPSLVKPSQTLSLTCTVSGFSLSSYSVSWVRQAPGKTLEWLGDASNGGIIYYNPALKSRLGITRDNSKSQVSLSLNTITPEDTATYYCAKCSVGDSGSYACTGRKGEYVDAWGQGLLVTVSS
VL: QAVLTQPPSVSGSLGQRVSITCSGSSDNIGIFAVGWYQQVPGSGLRTIIYGNTKRPSGVPDRFSGSKSGNTATLTINSLQAEDEADYFCVCGESKSATPVFGGGTTLTVL
With B1, the Kd was around 12 µM.

Source of the values: publication PMC6677920 (2019).
